Assay results taken from article PMC3806850.
pKd: −log10 of the molar value.

What was measured:
[1] = molecular target: 5T4Fab(V18)-SEA (not stated | not stated (staphylococcal)) (UniProt P0A0L2); assay: SPR
[2] = molecular target: C215Fab-SEE (not stated | not stated (staphylococcal)) (UniProt P12993); assay: SPR

Sequence of UniProt P0A0L2 (P0A0L2 whole entry, looked up): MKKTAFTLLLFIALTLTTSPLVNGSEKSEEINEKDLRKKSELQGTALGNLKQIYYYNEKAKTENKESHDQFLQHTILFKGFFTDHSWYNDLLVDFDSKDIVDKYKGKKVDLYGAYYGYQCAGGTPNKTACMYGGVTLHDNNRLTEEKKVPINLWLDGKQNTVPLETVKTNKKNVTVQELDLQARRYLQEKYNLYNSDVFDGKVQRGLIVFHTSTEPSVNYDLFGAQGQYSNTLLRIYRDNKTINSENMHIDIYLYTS

## Recombinant soluble human MHC class II (HLA-DR1) in complex with HA peptide (from UniProt P01903) (peptide-MHC)
[1]
  pKd: 6.40
  koff: 0.0011 s⁻¹
  kon: 2800 M⁻¹ s⁻¹
[2]
  pKd: 5.89
  koff: 0.0029 s⁻¹
  kon: 2300 M⁻¹ s⁻¹
